According to patent US20130129746A1 (GlaxoSmithKline, published 2013):
Read-outs that look alike come from different tables or passages of the source. One block for each binder: values may come before it.

How the values were obtained:
Human Serum Albumin [1] = target: T1, Human Serum Albumin (human, UniProt P02768 25-609); test: BIAcore SPR
T1 construct: mature; purified protein on CM5 chips for BIAcore; also called HSA; human SA
From the text: (§1) MSA antigen was obtained from Sigma (essentially fatty acid free, ˜99% (agarose gel electrophoresis), lyophilized powder Cat. No. A3559) and CSA was purified from Cynomolgus serum albumin using prometic blue resin (Amersham).

Rat Serum Albumin [2] = target: T2, Rat Serum Albumin (rat, UniProt P02770 25-608); test: BIAcore SPR;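 as to koff: purified dAbs run at 1 µM, 500 nM and 50 nM over human, cynomolgus, mouse and rat serum albumin in BIAcore binding measurements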
T2 construct: mature; purified protein on CM5 chips for BIAcore; also called RSA; rat SA
From the text: as §1

[3] = target: T3, Cynomolgus monkey Serum Albumin (Cynomolgus monkey, UniProt A2V9Z4 25-608); test: BIAcore SPR;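 as to koff: purified dAbs run at 1 µM, 500 nM and 50 nM over human, cynomolgus, mouse and rat serum albumin in BIAcore binding measurements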
T3 construct: mature; purified protein on CM5 chips for BIAcore; also called CSA; cyno SA
From the text: as §1

mouse serum albumin [4] = target: T4, mouse serum albumin (mouse, UniProt P07724 25-608); test: BIAcore SPR;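 as to koff: purified dAbs run at 1 µM, 500 nM and 50 nM over human, cynomolgus, mouse and rat serum albumin in BIAcore binding measurements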
T4 construct: mature; purified protein on CM5 chips for BIAcore; also called MSA; mouse SA
From the text: as §1

Human Serum Albumin [5] = target: T1, Human Serum Albumin; test: BIAcore SPR; remark: listed apart in the source
Rat Serum Albumin [6] = target: T2, Rat Serum Albumin; test: BIAcore SPR; remark: listed apart in the source;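 as to koff: purified dAbs run at 1 µM, 500 nM and 50 nM over human, cynomolgus, mouse and rat serum albumin in BIAcore binding measurements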
[7] = target: T3, Cynomolgus monkey Serum Albumin; test: BIAcore SPR; remark: listed apart in the source
Human Serum Albumin [8] = target: T1, Human Serum Albumin; test: BIAcore SPR; remark: listed apart in the source
Method: (§2) Binding to HSA, CSA, MSA and RSA by BIAcore was confirmed using purified protein at 3 concentrations 1 μM, 500 nM and 50 nM.

Rat Serum Albumin [9] = target: T2, Rat Serum Albumin; test: BIAcore SPR; remark: listed apart in the source
Method: as §2

[10] = target: T3, Cynomolgus monkey Serum Albumin; test: BIAcore SPR; remark: listed apart in the source
Method: as §2

mouse serum albumin [11] = target: T4, mouse serum albumin; test: BIAcore SPR; remark: listed apart in the source
Method: as §2

Rat Serum Albumin [12] = target: T2, Rat Serum Albumin; test: Albumin KD column of the PK table (repeats Table 6)

T3 sequence (A2V9Z4 25-608): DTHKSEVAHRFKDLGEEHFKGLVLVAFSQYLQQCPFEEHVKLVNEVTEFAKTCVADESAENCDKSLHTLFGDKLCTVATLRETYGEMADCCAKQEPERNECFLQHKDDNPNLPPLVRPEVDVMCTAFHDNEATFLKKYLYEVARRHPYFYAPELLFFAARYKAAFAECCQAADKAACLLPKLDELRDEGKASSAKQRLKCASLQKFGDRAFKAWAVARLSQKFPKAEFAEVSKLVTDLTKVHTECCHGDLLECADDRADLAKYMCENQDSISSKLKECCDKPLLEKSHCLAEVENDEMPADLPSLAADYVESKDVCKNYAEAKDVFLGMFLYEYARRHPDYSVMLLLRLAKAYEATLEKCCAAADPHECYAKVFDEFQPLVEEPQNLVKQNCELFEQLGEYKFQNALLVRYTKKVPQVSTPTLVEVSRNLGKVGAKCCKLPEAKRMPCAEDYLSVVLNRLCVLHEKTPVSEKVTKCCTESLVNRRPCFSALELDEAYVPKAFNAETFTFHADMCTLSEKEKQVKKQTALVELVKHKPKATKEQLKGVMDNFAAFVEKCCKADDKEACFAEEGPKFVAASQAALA
T2 sequence (P02770 25-608): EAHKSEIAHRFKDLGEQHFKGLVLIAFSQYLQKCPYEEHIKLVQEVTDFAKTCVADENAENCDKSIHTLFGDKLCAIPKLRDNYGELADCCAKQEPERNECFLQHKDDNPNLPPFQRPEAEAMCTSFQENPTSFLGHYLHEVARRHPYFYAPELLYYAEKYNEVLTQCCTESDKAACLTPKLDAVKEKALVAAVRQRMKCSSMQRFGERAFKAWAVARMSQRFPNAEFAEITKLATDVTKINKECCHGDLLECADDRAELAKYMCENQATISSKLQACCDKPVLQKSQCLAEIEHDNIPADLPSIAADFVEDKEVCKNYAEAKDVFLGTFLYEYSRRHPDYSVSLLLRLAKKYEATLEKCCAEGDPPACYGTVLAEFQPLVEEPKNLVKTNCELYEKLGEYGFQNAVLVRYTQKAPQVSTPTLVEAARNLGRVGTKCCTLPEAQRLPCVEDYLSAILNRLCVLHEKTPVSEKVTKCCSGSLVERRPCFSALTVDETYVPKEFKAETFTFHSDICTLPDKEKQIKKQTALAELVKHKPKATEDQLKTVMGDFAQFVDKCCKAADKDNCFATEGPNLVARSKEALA
T4 sequence (P07724 25-608): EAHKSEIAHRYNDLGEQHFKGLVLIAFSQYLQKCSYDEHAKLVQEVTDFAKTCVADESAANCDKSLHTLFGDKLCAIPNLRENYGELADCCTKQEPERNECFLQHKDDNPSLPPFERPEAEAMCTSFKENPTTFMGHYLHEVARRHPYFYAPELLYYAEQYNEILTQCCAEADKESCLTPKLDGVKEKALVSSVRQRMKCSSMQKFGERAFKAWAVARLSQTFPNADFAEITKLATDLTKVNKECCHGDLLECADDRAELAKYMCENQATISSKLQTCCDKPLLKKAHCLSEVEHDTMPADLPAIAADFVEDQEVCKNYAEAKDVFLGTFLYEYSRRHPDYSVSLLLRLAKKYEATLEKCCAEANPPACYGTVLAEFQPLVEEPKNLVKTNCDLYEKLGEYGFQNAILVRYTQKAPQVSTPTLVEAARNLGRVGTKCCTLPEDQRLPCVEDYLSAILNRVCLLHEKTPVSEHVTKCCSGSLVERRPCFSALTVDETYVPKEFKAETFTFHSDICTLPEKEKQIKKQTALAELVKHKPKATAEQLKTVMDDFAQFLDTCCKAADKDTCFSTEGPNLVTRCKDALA

Kd (Human Serum Albumin [1]): 5.9 nM
Kd (Rat Serum Albumin [2]): 11.1 nM
Kd [3]: 11.7 nM
Kd (mouse serum albumin [4]): 6.9 nM
B1: DOM7h-11-79 (other)
VL: DIQMTQSPSSLSASVGDRVTITCRASRPIGTMLSWYQQKPGKAPKLLILAFSRLQSGVPSRFSGSGSGTDFTLTISSLQPEDFATYYCAQTGTHPTTFGQGTKVEIKW
notes: Vk dAb

Kd (Human Serum Albumin [1]): 2.1 nM
Kd (Rat Serum Albumin [2]): 24.1 nM
Kd [3]: 5.5 nM
Kd (mouse serum albumin [4]): 10.9 nM
B2: DOM7h-11-80 (other)
VL: DIQMTQSPSSLSASVGDRVTIFCRASRPIGTMLSWYQQKPGKAPKLLILAFSRLQSGVPSRFSGSGSGTDFTLTISSLQPEDFATYYCAQAGTHPTTFGQGTKVEIKW
notes: Vk dAb

Ka (Human Serum Albumin [5]): 5.27e+07 M⁻¹
Kd (Human Serum Albumin [5]): 20.2 nM
koff (Human Serum Albumin [5]): 0.0087 s⁻¹
kon (Human Serum Albumin [5]): 469000 M⁻¹ s⁻¹
Ka (Rat Serum Albumin [6]): 1.91e+07 M⁻¹
Kd (Rat Serum Albumin [6]): 53.6 nM
kon (Rat Serum Albumin [6]): 376000 M⁻¹ s⁻¹
Ka [7]: 1.01e+08 M⁻¹
Kd [7]: 9.99 nM
kon [7]: 747000 M⁻¹ s⁻¹
B3: DOM7h-11-90 (other)
VL: DIQMTQSPSSLSASVGDRVTITCRASRPIGTMLSWYQQKPGKAPKLLILAFSRLQSGVPSRFSGSGSGTDFTLTISNLQPEDFATYYCAQAGTHPTTFGQGTKVEIKR
notes: Vk dAb; also called DOM7h-11-57 W108R/N106I

Ka (Human Serum Albumin [1]): 1.12e+09 M⁻¹
Kd (Human Serum Albumin [1]): 0.9 nM
kon (Human Serum Albumin [1]): 1.75e+06 M⁻¹ s⁻¹
Ka (Rat Serum Albumin [2]): 8.6e+07 M⁻¹
Kd (Rat Serum Albumin [2]): 11.6 nM
kon (Rat Serum Albumin [2]): 1.33e+06 M⁻¹ s⁻¹
Ka [3]: 3.69e+08 M⁻¹
Kd [3]: 2.7 nM
kon [3]: 2.03e+06 M⁻¹ s⁻¹
Kd (mouse serum albumin [4]): 6.7 nM
B4: DOM7h-11-67 (other)
VL: DIQMTQSPSSLSASVGDRVTITCRASRPIGTMLSWYQQKPGKAPKLLILAFSRLQSGVPSRFSGSGSGTDFTLTISSLQPEDFATYYCAQAGTHHTTFGQGTKVENKW
notes: Vk dAb

Kd (Human Serum Albumin [1]): 33.5 nM
Kd (Rat Serum Albumin [2]): 25.3 nM
Kd [3]: 37.9 nM
Kd (mouse serum albumin [4]): 15.5 nM
B5: DOM7h-11-68 (other)
VL: DIQMTQSPSSLSASVGDRVTITCRASRPIGTMLSWYQQKPGEAPKLLILAFSRLQSGVPSRFSGSGSGTDFTLTISSLQPEDFATYYCAQTGTHPTTFGQGTKVEIKW
notes: Vk dAb

Ka (Human Serum Albumin [1]): 5.52e+08 M⁻¹
Kd (Human Serum Albumin [1]): 1.8 nM
kon (Human Serum Albumin [1]): 1.3e+06 M⁻¹ s⁻¹
Ka (Rat Serum Albumin [2]): 4.06e+07 M⁻¹
Kd (Rat Serum Albumin [2]): 24.6 nM
kon (Rat Serum Albumin [2]): 780000 M⁻¹ s⁻¹
Ka [3]: 6.35e+07 M⁻¹
Kd [3]: 15.7 nM
kon [3]: 1.19e+06 M⁻¹ s⁻¹
Kd (mouse serum albumin [4]): 9.4 nM
B6: DOM7h-11-65 (other)
VL: DIQMTQSPSSLSASVGDRVTITCRASRPIGTMLSWYQQKPGKAPKLLILAFSRLQSGVPSRFSGSGSGTDFTLTISSLQPEDVATYYCAQAGTHPTTFGQGTKVEIKW
notes: Vk dAb

Ka (Human Serum Albumin [5]): 1.37e+08 M⁻¹
Kd (Human Serum Albumin [5]): 7.39 nM
kon (Human Serum Albumin [5]): 1.17e+06 M⁻¹ s⁻¹
Ka (Rat Serum Albumin [6]): 5.77e+07 M⁻¹
Kd (Rat Serum Albumin [6]): 17.6 nM
kon (Rat Serum Albumin [6]): 830000 M⁻¹ s⁻¹
Ka [7]: 2.47e+08 M⁻¹
Kd [7]: 4.21 nM
kon [7]: 1.37e+06 M⁻¹ s⁻¹
B7: DOM7h-11-87 (other)
VL: DIQMTQSPSSLSASVGDRVTITCRASRPIGTMLSWYQQKPGKAPKLLILAFSRLQSGVPSRFSGSGSGTDFTLTISSLQPEDFATYYCAQAGTHHTTFGQGTKVEIKR
notes: Vk dAb; also called DOM7h-11-67 W108R/N106I

Kd (Human Serum Albumin [8]): 280 nM
koff (Human Serum Albumin [8]): 0.0339 s⁻¹
kon (Human Serum Albumin [8]): 189000 M⁻¹ s⁻¹
Kd (Rat Serum Albumin [9]): 410 nM
koff (Rat Serum Albumin [9]): 0.228 s⁻¹
kon (Rat Serum Albumin [9]): 560000 M⁻¹ s⁻¹
Kd [10]: 180 nM
koff [10]: 0.105 s⁻¹
kon [10]: 630000 M⁻¹ s⁻¹
Kd (mouse serum albumin [11]): 65 nM
koff (mouse serum albumin [11]): 0.0924 s⁻¹
kon (mouse serum albumin [11]): 2.28e+06 M⁻¹ s⁻¹
Kd (Rat Serum Albumin [12]): 410 nM
B8: DOM7h-14-18 (other)
VL: DIQMTQSPSSLSASVGDRVTITCRASQWIGSQLSWYQQKPGKAPKLLIMWRSSLQSGVPSRFSGSGSGTDFTLTISSLQPEDFATYYCAQGLMKPMTFGQGTKVEIKR
notes: Vk dAb (AlbudAb)

Kd (Human Serum Albumin [8]): 70 nM
koff (Human Serum Albumin [8]): 0.0525 s⁻¹
kon (Human Serum Albumin [8]): 826000 M⁻¹ s⁻¹
Kd (Rat Serum Albumin [9]): 890 nM
koff (Rat Serum Albumin [9]): 0.287 s⁻¹
kon (Rat Serum Albumin [9]): 320000 M⁻¹ s⁻¹
Kd [10]: 225 nM
koff [10]: 0.156 s⁻¹
kon [10]: 700000 M⁻¹ s⁻¹
Kd (mouse serum albumin [11]): 60 nM
koff (mouse serum albumin [11]): 0.0576 s⁻¹
kon (mouse serum albumin [11]): 1.16e+06 M⁻¹ s⁻¹
Kd (Rat Serum Albumin [12]): 890 nM
B9: DOM7h-14-19 (other)
VL: DIQMTQSPSSLSASVGDRVTISCRASQWIGSQLSWYQQKPGEAPKLLIMWRSSLQSGVPSRFSGSGSGTDFTLTISSLQPEDFATYYCAQGAALPRTFGQGTKVEIKR
notes: Vk dAb (AlbudAb)
